The values that follow are results of earlier work, collected in patent publication US9826773B2, “Brazzen multiple variants of increased sweetness, and production method for same” (CHUNG-ANG UNIVERSITY INDUSTRY—ACADEMIC COOPERATION …, priority 2012, dated 2017).

For the data set the following is noted: cited from earlier work; for thermal stability: background statement.

For the substance “Brazzein: sweetener protein extracted from the fruit of Pentadiplandra brazzeana (Baillon) (QDKCKKVYENYPVSKCQLANQCNYDCKLDKHARSGECFYDEKRNLQCICDYCEY; UniProt P56552 1-54, looked up)”, the thermal stability entry was “very high thermal stability”. The “solubility and pH stability in water” value (Gao et al. 1999) was “very high solubility and pH stability”.
In the case of Monellin, the thermal stability result was “low thermal stability”.
